In US20030180744, “High affinity oligonucleotide ligands to growth factors” (GILEAD SCIENCES, INC., published 2003):
Numbering of substitutions follows the chain as printed.

What was measured:
TGFβ1 [1] = molecular target: T1, TGFβ1 (Homo sapiens, UniProt P01137 P01137:279-390); assay: filter; 2'-OH RNA; printed lib1-6-8 in Table 4; details: tags: Genentech; biotinylated version used in bead assay; chain copies: 2
TGFβ1 [2] = molecular target: T1, TGFβ1; assay: cell_activity; details: tags: Genentech or R&D Systems; chain copies: 2
Method: MLEC-Pail/luc cells were plated at 3.2×10⁴ cells per well in a 96 well Falcon plate, in 100 μl of DME+10% fetal bovine serum overnight. Media was made from autoclaved water. The cells were washed three times ([…]) in serum free DME plus Solution A (1:1). Solution A is 30 mM Hepes pH 7.6, 10 mM glucose, 3.0 mM KCl, 131 mM NaCl, 1.0 mM disodium phosphate. Samples (100 μl) were added in DME containing 20 mM Hepes pH 7.5, and 0.1% BSA (Fluka, radioimmunoassay grade). All samples were in triplicate. After six hours at 37° C. in a 5% CO₂ incubator the media was removed and cells were washed three times (100 μl each) in cold PBS. Lysis buffer (75 μl) (Analytical Luminescence Laboratory) was added and the plates incubated on ice for 20 min. The plates were sealed and frozen at −80° C. until assayed. Samples (25 μl) were assayed for luciferase activity with the Enhanced Luciferase Assay Kit from Analytical Luminescence Laboratory (San Diego, Calif., USA) according to the manufacturer's instructions using the Berthold Microlumat LB96P luminometer.
Ligands tested for inhibition of TGFβ1 activity were tested at a minimum of five concentrations. The ligands were serially diluted in DME, 20 mM Hepes pH 7.5, 0.1% Fluka BSA in polypropylene tubes and an equal volume of media containing 12 pM TGFβ1 was added to each tube, vortexed and transferred to the cells without further incubation.

TGFβ1 [3] = molecular target: T1, TGFβ1; assay: filter; cell IC50 22 nM; details: tags: Genentech; biotinylated version used in bead assay; chain copies: 2
TGFβ1 [4] = molecular target: T1, TGFβ1; assay: filter; cell IC50 298 and 201 nM; details: tags: Genentech; biotinylated version used in bead assay; chain copies: 2
KGF (hKGF) [5] = molecular target: T2, KGF (hKGF) (Homo sapiens, UniProt P21781 P21781:32-194); assay: filter; 43-mer, shortest active truncate; retains high and low affinity components; details: tags: Upstate Biotechnology; pseudoknot (predicted)
T2 sequence: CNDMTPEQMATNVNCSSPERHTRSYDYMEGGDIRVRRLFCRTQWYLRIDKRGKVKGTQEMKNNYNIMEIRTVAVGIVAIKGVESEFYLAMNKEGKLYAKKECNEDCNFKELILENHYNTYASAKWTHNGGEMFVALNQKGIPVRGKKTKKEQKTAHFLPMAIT
Method: In an effort to identify shorter KGF ligands that retained binding, the binding activity of various deletions of the shortest truncate of ligand 14F, namely 14F3′T were tested. Deletions were tested in all the structural elements of the proposed pseudoknot structure. RNA transcripts containing 2′F pyrimidines and 2′OH purines were obtained by in vitro transcription using synthetic DNA templates. The activity of each ligand is shown by scoring for both the high (H) and low (L) affinity component of the 14F3′T binding curve with +(active) or −(not active). Truncates T35 and T36 represent two complementary halves of 14F3′T molecule and were additionally tested as an equimolar mixture. The structural elements of the proposed pseudoknot structure are separated by (1) and are indicated by symbols S1 (stem 1), S2 (stem 2), L1 (loop 1) and L3 (loop 3). The proposed pseudoknot structure for 14F3′T is a non-H-type pseudoknot and lacks L2 (loop 2). The complementary sequences forming S1 (S1 and S1′) and S2 (S2 and S2′) are marked by single and double underlines respectfully. In the tabulated sequences, deleted bases were replaced with periods (.). […] Deletions in loop 3 (L3), however, were tolerated as long as one copy of the RRYY box remained intact. The shortest ligand that retained activity is T22 which is a 43-mer. […]

TGFβ1 [6] = molecular target: T1, TGFβ1; assay: filter; cell IC50 103 and 112 nM; fully effective only against TGFβ1, not TGFβ2 or TGFβ3; details: tags: Genentech; biotinylated version used in bead assay; chain copies: 2
TGFβ1 [7] = molecular target: T1, TGFβ1; assay: filter; C to G at position 53; not inhibitory; details: tags: Genentech; biotinylated version used in bead assay; chain copies: 2
TGFβ1 [8] = molecular target: T1, TGFβ1; assay: filter; 37 C, KRH buffer; details: tags: Genentech; biotinylated version used in bead assay; chain copies: 2
TGFβ1 [9] = molecular target: T1, TGFβ1; assay: filter; cell IC50 119 nM; details: tags: Genentech; biotinylated version used in bead assay; chain copies: 2
KGF (hKGF) [10] = molecular target: T2, KGF (hKGF); assay: filter; biphasic, high affinity 21%; Kd2 2.10 nM; details: tags: Upstate Biotechnology; label: 32P
TGFβ1 [11] = molecular target: T1, TGFβ1; assay: filter; 2'-OH RNA; details: tags: Genentech; biotinylated version used in bead assay; chain copies: 2
PDGF-BB [12] = molecular target: T3, PDGF-BB (Homo sapiens, UniProt P01127 P01127:82-190); assay: competition; PDGF alpha-receptor PAE cells, 4 C; details: tags: R&D Systems, E. coli; chain copies: B chain dimer; three-way helix junction
Method: The binding of ¹²⁵I-PDGF-AA and ¹²⁵I-PDGF-BB to porcine aortic endothelial (PAE) cells transfected with PDGF α- or β-receptors were performed as described (Heldin et al., (1988) EMBO J. 7:1387-1394). Different concentrations of DNA ligands were added to the cell culture (1.5 cm²) in 0.2 ml of phosphate buffered saline supplemented with 1 mg bovine serum albumin per ml together with ¹²⁵I-PDGF-AA (2 ng, 100,000 cpm) or ¹²⁵I-PDGF-BB (2 ng, 100,000 cpm). After incubation at 4° C. for 90 min, the cell cultures were washed and cell associated radioactivity determined in a γ-counter (Heldin et al., (1988) EMBO J. 7:1387-1394).
In order to determine whether the DNA ligands to PDGF were able to inhibit the effects of PDGF isoforms on cultured cells, the effects on binding of ¹²⁵I-labeled PDGF isoforms to PDGF α- and β-receptors stably expressed in porcine aortic endothelial (PAE) cells by transfection was determined.

TGFβ1 [13] = molecular target: T1, TGFβ1; assay: filter; not inhibitory; no binding with 2'-NH2 pyrimidines; details: tags: Genentech; biotinylated version used in bead assay; chain copies: 2
PDGF-AB = PDGF-AB (Homo sapiens, UniProt P04085;P01127 P04085:87-211,P01127:82-190); assay: filter; +/-0.011; high affinity component; PBSM, 37 C; details: tags: R&D Systems, E. coli; label: 5'-32P; three-way helix junction
Method: (§1) The fraction of ³²P 5′ nd-labeled DNA ligands bound to varying concentrations of PDGF was determined by the nitrocellulose filter binding method. Minimal ligands tested were 20t (o), 36t (Δ), and 41t (□). Oligonucleotide concentrations in these experiments were ≈10 pM (PDGF-AB and PDGF-BB) and ≈50 pM (PDGF AA). Data points were fitted to eq. 1 (for binding of the DNA ligands to PDGF-AA) or to eq. 2 (for binding to PDGF AB and BB) using the non-linear least squares method. Binding reactions were done at 37° C. in binding buffer (PBSM with 0.01% HSA).
(§2) The binding of ssDNA ligands at low concentrations to varying concentrations of PDGF was determined by the nitrocellulose filter binding method as described (Green et al., (1995) Chemistry and Biology 2:683-695). The concentrations of PDGF stock solutions (in PBS) were determined from the absorbance readings at 280 nm using the following e₂₈₀ values calculated from the amino acid sequences (Gill, S.C. and von Hippel, P. H. (1989) Anal. Biochem. 182:319-326): 19,500 M⁻¹cm⁻¹ for PDGF-AA, 15,700 M⁻¹cm⁻¹ for PDGF-AB and 11,800 M⁻¹cm⁻¹ for PDGF-BB. ssDNA for all binding experiments were purified by electrophoresis on 8% (>80 nucleotides) or 12% (<40 nucleotides) polyacrylamide/7 M urea gels. All ssDNA ligands were heated at 90° C. in binding buffer at high dilution (1 μM) for 2 min and cooled on ice prior to further dilution into the protein solution. The binding mixtures were typically incubated for 15 min at 37° C. before partitioning on nitrocellulose filters.
(§3) ^aData points shown in FIG. 5A were fitted to eq 1 (Example 7). ^bData points in FIGS. 5B and 5C were fitted to eq. 2.

PDGF-BB [14] = molecular target: T3, PDGF-BB; assay: filter; +/-0.031; high affinity component; PBSM, 37 C; details: tags: R&D Systems, E. coli; chain copies: 2 (inferred); label: 5'-32P; three-way helix junction
Method: as §1, §3

PDGF-AA = PDGF-AA (Homo sapiens, UniProt P04085 P04085:87-211); assay: filter; +/-4; PBSM, 0.01% HSA, 37 C; comparable to random DNA; details: tags: R&D Systems, E. coli, long form of A-chain; chain copies: 2 (inferred); label: 5'-32P; three-way helix junction
Method: as §1
as §2, with “All ssDNA ligands were heated at 90° C. in binding buffer at high dilution (1 μM) for 2 min and cooled on ice prior to further dilution into the protein solution. The binding mixtures were typically incubated for 15 min at 37° C. before partitioning on nitrocellulose filters.” left out

T1 sequence (P01137 279-390, one chain of several): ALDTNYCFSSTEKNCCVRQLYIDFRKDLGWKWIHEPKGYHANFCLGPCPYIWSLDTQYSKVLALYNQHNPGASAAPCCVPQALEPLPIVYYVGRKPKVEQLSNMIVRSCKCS
T3 sequence (P01127 82-190, one chain of several): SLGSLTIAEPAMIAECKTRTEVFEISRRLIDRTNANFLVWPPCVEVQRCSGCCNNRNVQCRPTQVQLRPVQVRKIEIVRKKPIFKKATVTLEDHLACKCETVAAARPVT
Sequence of PDGF-AB (P01127 82-190, chain 2 of 2, other chains not shown): as the sequence (P01127 82-190, one chain of several) above

B1: lib2-6-8 (lib1-6-8 in Table 4) (ssRNA)
RNA: GGGGGAGAACGCGGAUCCAUAACCGGCUGCAUGGGAGGGACAUCCUGGGAAAGGACGGGUCGAGAUGACCUGAGCAGUUCCGGCAAGCUUCGCUCUAGAUCUCCCUUUAGUGAGGGUUA
- Kd (TGFβ1 [1]): 4.7 nM

B2: lib3-42 (ssRNA)
RNA: GGGGGAGAACGCGGAUCCGGUGGGAAAGUCGGAUUAUGUGUGUAGAUUUGUGUGCGAAAGCUUCGCUCUAGAUCUCCCUUUAGUGAGGGUUA
modifications: 2'-NH2 pyrimidines
- IC50 (TGFβ1 [2]): 22 nM
- Kd (TGFβ1 [3]): 0.6 nM

B3: lib2-6-1-81 (ssRNA)
RNA: GGGGGAGAACGCGGAUCCUGUCUCCACCGCCGAUACUGGGGUUCCUGGGGCCCCUCCAUGCAGGAGGGGGGUGGUUCGGAG
modifications: 2'-NH2 U, 2'-F C
- Kd (TGFβ1 [4]): 10.7 nM

Binder: GGGAGGACGAUGCGGUGGUCUCCCAAUUCUUCUCCAUCGUAUC (ssRNA, 2'-F pyrimidines) [T22]
- binding result (KGF (hKGF) [5]): binds

B4: lib2-6-1 (ssRNA)
RNA: GGGGGAGAACGCGGAUCCUGUCUCCACCGCCGAUACUGGGGUUCCUGGGGCCCCUCCAUGCAGGAGGGGGGUGGUUCGGAGAAAGCUUCGCUCUAGAUCUCCCUUUAGUGAGGGUUA
modifications: 2'-NH2 U, 2'-F C
- Kd (TGFβ1 [6]): 14.3 nM

B5: lib8-23 (ssRNA)
RNA: B4 RNA with C53G
modifications: 2'-NH2 U, 2'-F C
- Kd (TGFβ1 [7]): 6.6 nM

B6: lib3-3 (ssRNA)
RNA: GGGGGAGAACGCGGAUCCGAGCAACCCCAGGCGCAUAGCUUCCGAGUAGACAGGAGGGAGGGGUGGAUGUGGCGUCUACUCGGUGUCGUGAAGCUUCGCUCUAGAUCUCCCUUUAGUGAGGGUUA
modifications: 2'-NH2 pyrimidines
- Kd (TGFβ1 [8]): 1.7 nM

B7: lib3-44 (ssRNA)
RNA: GGGGGAGAACGCGGAUCCUGAGAAGGACGUCGGGGUGAGGUGCAGCAGAAAGGGCCGGCACCACAUGACGUAAAAGCUUCGCUCUAGAUCUCCCUUUAGUGAGGGUUA
modifications: 2'-NH2 pyrimidines
- IC50 (TGFβ1 [2]): 119 nM
- Kd (TGFβ1 [9]): 1.3 nM

B8: 50F (ssRNA)
RNA: GGGAGGACGAUGCGGUGAUCAAUCGGCGCUUUACUCUUGCGCUCACCGUGCCCCAGACGACUCGCCCGA
modifications: 2'-F pyrimidines
- Kd (KGF (hKGF) [10]): 0.12 nM

B9: lib1-20-12 (ssRNA)
RNA: GGGGGAGAACGCGGAUCCGGUCACCCGGGCAUAUAACAAUGCCGACACUGGGGUACCUGGGACGGGUGGGACUGGACGGAAGAAGCUUCGCUCUAGAUCUCCCUUUAGUGAGGGUUA
- Kd (TGFβ1 [11]): 3.1 nM

Binder: TACTCAGGGCACTGCAAGCAATTGTGGTCCCAATGGGCTGAGTAT (ssDNA, 3'-3' idT) [41t]
- IC50 (PDGF-BB [12]): ~1 nM

B10: lib1-20-3 (ssRNA)
RNA: GGGGGAGAACGCGGAUCCUGCUAGACCGAGGAUGCAAAGGGACAUGCAUUAGGGAAACCUAUGUAUAAGAACGCGGUCGCAGAAGCUUCGCUCUAGAUCUCCCUUUAGUGAGGGUUA
modifications: 2'-F pyrimidines
- Kd (TGFβ1 [13]): 30 nM

Binder: TGGGAGGGCGCGTTCTTCGTGGTTACTTTTAGTCCCGT (ssDNA, 3'-3' linked T at 3' end)
- Kd (PDGF-AB): 0.147 nM
- Kd (PDGF-BB [14]): 0.127 nM
- Kd (PDGF-AA): 47 nM

Binder: TGGGAGGGCGCGTTCTTCGTGGTTACTTTTAGTCCCGT (ssDNA, 3'-3' idT)
- IC50 (PDGF-BB [12]): ~1 nM
